# Data from US20050233963A1 (SCIENCE AND TECHNOLOGY CORPORATION UNM, published 2005).
# Legend:
# [1] = biological target: T1, hsp70 (heat shock protein 70) (UniProt P0DMV8 1-641); assay: far-western, GST fusion probe on blotted 20 ng protein
# T1 construct: also called hs70 (printed for both hsp70 and hsc70); pure hsp70
# [2] = biological target: T2, hsc70 (constitutively expressed form of hsp70) (UniProt P11142 1-646); assay: as above
# T2 construct: also called hs70 (printed for both hsp70 and hsc70); pure hsc70
# T2 sequence (P11142 whole entry): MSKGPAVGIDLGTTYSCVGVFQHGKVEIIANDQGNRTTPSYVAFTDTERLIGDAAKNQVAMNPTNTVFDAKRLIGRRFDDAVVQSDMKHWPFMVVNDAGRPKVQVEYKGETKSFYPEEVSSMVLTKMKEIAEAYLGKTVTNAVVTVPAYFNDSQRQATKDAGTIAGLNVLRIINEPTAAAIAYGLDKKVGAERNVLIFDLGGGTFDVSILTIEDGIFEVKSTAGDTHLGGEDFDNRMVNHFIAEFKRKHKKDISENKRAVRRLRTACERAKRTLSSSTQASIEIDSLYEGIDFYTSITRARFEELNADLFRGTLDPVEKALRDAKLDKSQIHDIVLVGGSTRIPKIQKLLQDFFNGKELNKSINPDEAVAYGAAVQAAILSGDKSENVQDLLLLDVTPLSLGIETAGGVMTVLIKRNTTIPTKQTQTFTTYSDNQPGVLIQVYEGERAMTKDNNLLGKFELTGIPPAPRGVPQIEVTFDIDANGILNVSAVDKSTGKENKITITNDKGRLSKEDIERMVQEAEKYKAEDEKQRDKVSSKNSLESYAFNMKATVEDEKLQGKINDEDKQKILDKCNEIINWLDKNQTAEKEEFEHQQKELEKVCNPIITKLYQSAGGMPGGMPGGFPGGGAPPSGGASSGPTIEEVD
# T1 sequence (P0DMV8 whole entry, the tested form may be a part): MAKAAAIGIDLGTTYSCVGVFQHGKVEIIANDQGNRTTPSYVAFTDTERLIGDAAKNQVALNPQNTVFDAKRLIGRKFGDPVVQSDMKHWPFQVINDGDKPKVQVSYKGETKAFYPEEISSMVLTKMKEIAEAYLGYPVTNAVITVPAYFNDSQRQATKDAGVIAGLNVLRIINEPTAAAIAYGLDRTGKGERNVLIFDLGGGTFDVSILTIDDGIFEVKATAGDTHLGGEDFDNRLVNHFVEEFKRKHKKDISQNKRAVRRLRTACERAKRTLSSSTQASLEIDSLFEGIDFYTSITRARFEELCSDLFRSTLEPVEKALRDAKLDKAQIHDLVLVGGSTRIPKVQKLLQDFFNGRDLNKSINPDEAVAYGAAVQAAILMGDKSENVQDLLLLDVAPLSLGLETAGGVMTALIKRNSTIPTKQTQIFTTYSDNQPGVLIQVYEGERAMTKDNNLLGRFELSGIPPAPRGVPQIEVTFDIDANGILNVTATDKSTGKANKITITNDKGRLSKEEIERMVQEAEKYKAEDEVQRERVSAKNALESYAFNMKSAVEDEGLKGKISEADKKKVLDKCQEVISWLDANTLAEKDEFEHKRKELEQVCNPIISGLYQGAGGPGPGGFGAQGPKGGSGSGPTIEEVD
binder,measurement,setting,value
"GST-UBP C1/2 (a.a. 145-313) (other, UniProt O43765 145-313, looked up, also called C/2; not shown: glutathione S-transferase (GST) fusion partner) VQDCERAICIDPAYSKAYGRMGLALSSLNKHVEAVAYYKKALELDPDNETYKSNLKIAELKLREAPSPTGGVGSFDIAGLLNNPGFMSMASNLMNNPQIQQLMSGMISGGNNPLGTPGTSPSQNDLASLIQAGQQFAQQMQQQNPELIEQLRSQIRSRTPSASNDDQQE",binding result,[1],no binding
same,binding result,[2],no binding
"GST-UBP N1/2 (a.a. 1-145) (other, UniProt O43765 1-145, looked up, not shown: glutathione S-transferase (GST) fusion partner) MDNKKRLAYAIIQFLHDQLRHGGLSSDAQESLEVAIQCLETAFGVTVEDSDLALPQTLPEIFEAAATGKEMPQDLRSPARTPPSEEDSAEAERLKTEGNEQMKVENFEAAVHFYGKAIELNPANAVYFCNRAAAYSKLGNYAGAV",binding result,[1],no binding
same,binding result,[2],no binding
